Experiment [1] deals with T1, CEACAM8, recombinant soluble (CEACAM-8, R&D Systems #9639-CM-050) (UniProt P31997 35-320, limits assumed).
T1 sequence (looked up): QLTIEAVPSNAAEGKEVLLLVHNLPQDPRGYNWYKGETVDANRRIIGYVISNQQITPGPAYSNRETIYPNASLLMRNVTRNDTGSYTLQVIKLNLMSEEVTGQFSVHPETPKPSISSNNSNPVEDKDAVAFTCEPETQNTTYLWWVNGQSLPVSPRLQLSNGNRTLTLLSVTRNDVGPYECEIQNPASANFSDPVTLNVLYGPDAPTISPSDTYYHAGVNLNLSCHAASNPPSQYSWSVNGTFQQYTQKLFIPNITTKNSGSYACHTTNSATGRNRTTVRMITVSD
The experiment can be described thus: ELISA, coated CEACAM family protein. The protocol:
(§1) 96-well plates were coated with 0.5 μg/mL antigen, hCEACAM-1 (2244-CM-050, R&D Systems), hCEACAM-5 (4128-CM-050, R&D Systems), hCEACAM-6 (3934-CM-050, R&D Systems) or CEACAM-8 (9639-CM-050, R&D Systems) in PBS over night at 4° C. After washing in PBS/0.05% Tween 20 (PBST), the plates were blocked with PBST, 2% BSA for at least 30 minutes at room temperature before a second round of washing. RUBY bsAbs, diluted in PBST, 0.5% BSA, were then added and allowed to bind for at least 1 hour at room temperature. […] Finally, a final round of washing was performed and bound complexes detected using SuperSignal Pico Luminescent as substrate and luminescence signals were measured using Fluostar Optima.

Experiment [2] has as its target T2, human CEACAM6, recombinant soluble (hCEACAM-6, R&D Systems #3934-CM-050) (human, UniProt P40199 35-320).
T2 sequence (looked up): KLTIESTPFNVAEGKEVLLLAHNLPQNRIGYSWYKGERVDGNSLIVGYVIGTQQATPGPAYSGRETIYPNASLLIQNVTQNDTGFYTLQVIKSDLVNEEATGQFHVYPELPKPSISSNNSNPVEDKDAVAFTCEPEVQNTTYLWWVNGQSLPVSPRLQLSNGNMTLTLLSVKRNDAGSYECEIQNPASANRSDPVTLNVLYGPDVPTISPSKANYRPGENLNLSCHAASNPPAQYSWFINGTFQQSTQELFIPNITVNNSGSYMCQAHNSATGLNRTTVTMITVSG
The experiment can be described thus: ELISA, coated CEACAM family protein. The procedure: as §1
(In general: ELISA stands for enzyme-linked immunosorbent assay.)

In experiment [3] the target is T3, human CEACAM1, recombinant soluble (hCEACAM-1, R&D Systems #2244-CM-050) (human, UniProt P13688 35-428).
T3 sequence (looked up): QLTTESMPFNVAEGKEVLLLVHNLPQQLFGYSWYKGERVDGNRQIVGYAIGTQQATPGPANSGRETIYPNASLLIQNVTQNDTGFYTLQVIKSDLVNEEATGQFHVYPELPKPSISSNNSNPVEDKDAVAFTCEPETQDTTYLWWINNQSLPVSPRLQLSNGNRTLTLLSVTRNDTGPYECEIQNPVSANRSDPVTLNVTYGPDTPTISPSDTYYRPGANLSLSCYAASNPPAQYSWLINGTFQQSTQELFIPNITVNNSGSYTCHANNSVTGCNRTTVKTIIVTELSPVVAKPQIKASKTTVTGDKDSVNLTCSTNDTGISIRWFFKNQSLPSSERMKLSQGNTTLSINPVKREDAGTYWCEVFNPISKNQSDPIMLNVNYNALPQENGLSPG
Kind of experiment: ELISA, coated CEACAM family protein. The procedure: as §1

Experiment [4] has as its target T4, biotinylated human CD40-mouse Fc (Ancell #504-030) (human, UniProt P25942 21-193, biotinylated).
T4 construct: Bought fusion protein; also called hCD40-muIg; CD40mFc-biotin; not shown: mouse Ig Fc of the bought fusion protein
The experiment can be described thus: dual target ELISA: CEACAM5 coated, biotinylated hCD40-muIg detection. The protocol: ELISA plates were coated with human EpCAM, bsAb was added followed by detection using goat anti human-kappa light chain-HRP.
as §1

T4 sequence (P25942 21-193): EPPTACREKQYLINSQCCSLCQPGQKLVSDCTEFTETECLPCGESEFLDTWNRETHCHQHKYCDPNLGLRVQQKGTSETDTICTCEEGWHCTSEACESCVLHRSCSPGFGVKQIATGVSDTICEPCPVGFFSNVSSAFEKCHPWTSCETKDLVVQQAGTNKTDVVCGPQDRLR

B1: Multi48 (bispecific antibody)
heavy 1: not shown
light: DIQMTQSPSSLSASVGDRVTITCRASQSISSYLNWYQEKPGKAPKLLIYAASSLQSGVPSRFSGSGSGTDFTLTISSLQPEDFATYYCQQYGRNPPTFGQGTKLEIKRTVAAPSVFIFPPSDEQLKSGTASVVCYLNNFYPREAKVQWKVDNALQSGNSQESVTEQDSKDSTYSLWSTLTLSKADYEKHKVYACEVTHQGLSSPVTKSFNRGEC
heavy 2: EVQLLESGGGLVQPGGSLRLSCAASGFTFGDHAMSWVREAPGKGLEWVSAISGYGHSTGYADSVKGRFTISRDNSKNTLYLQMNSLRAEDTAVYYCARNHYRVGLDYWGQGTLVTVSSASTKGPSVFPLAPSSKSTSGGTAALGCLVKDYFPEPVTVSWNSGALTSGVHTFPAVLQSSGLYSLTSVVEVPSSSLGTQTYICNVNHKPSNTKVDKKVEPKSC
notes: copies: 2 + 2 + 2
For the molecule B1, the binding result is listed as “no binding” in experiment [1], “no binding” in experiment [2], “no binding” in experiment [3] and “binds” in experiment [4].

For the origin of these results see US20240117074A1 (published 2024).
